Patent US20200247855A1, “THERAPY AND DIAGNOSTICS” (OXFORD UNIVERSITY INNOVATION LIMITED, priority 2017, published 2020)

Experiments:
CCL13_HUMAN = CCL13_HUMAN (Homo sapiens, UniProt Q99616); assay: Biolayer interferometry (BLI) binding
Outline: (§1)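 Binding was measured by biolayer interferometry with the His-tagged tick protein bound to Ni-NTA sensors. A single-concentration screen used chemokine at 300 nM. Chemokines that bound were retested over multiple doses, and Kd was calculated from fitted curves.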

CCL27_HUMAN = target: T1, CCL27_HUMAN (Homo sapiens, UniProt Q9Y4X3); assay: Biolayer interferometry (BLI) binding
T1 sequence (Q9Y4X3 25-112): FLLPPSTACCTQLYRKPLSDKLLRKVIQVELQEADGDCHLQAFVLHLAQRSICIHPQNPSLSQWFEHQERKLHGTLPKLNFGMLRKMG
Outline: as §1

chemokines = conditions: list of chemokines bound, from the literature [18,20-22]; cited from earlier work
CCL23_HUMAN = target: T2, CCL23_HUMAN (Homo sapiens, UniProt P55773); conditions: read-out: Kd, CCL23_HUMAN, previously described evasins; data obtained from publications [20-22,32]; cited from earlier work
T2 sequence (P55773 22-120): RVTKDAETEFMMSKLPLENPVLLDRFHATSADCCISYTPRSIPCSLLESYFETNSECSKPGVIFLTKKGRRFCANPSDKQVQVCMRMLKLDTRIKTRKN

CCL8_HUMAN = target: T3, CCL8_HUMAN (Homo sapiens, UniProt P80075); conditions: read-out: Kd, CCL8_HUMAN, previously described evasins; data obtained from publications [20-22,32]; cited from earlier work
T3 sequence (P80075 24-99): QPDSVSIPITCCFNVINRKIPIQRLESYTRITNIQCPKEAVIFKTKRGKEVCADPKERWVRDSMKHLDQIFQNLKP

CCL20_HUMAN = CCL20_HUMAN (Homo sapiens, UniProt P78556); conditions: data obtained from publications [20-22,32]; cited from earlier work
CCL20_HUMAN, sequence (P78556 27-96): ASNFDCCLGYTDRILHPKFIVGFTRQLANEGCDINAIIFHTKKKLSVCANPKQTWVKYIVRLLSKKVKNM

CCL14_HUMAN = target: T4, CCL14_HUMAN (Homo sapiens, UniProt Q16627); conditions: read-out: Kd, CCL14_HUMAN, previously described evasins; data obtained from publications [20-22,32]; cited from earlier work
T4 sequence (Q16627 20-93): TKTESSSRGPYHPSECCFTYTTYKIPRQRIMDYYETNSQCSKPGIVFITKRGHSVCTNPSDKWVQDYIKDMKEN

CCL2_HUMAN = CCL2_HUMAN (Homo sapiens, UniProt P13500); conditions: data obtained from publications [20-22,32]; cited from earlier work
CCL2_HUMAN, sequence (P13500 24-99): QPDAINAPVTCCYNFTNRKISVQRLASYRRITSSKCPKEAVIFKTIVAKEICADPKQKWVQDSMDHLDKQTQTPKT

CCL15_HUMAN = target: T5, CCL15_HUMAN (Homo sapiens, UniProt Q16663); conditions: read-out: Kd, CCL15_HUMAN, previously described evasins; data obtained from publications [20-22,32]; cited from earlier work
T5 sequence (Q16663 22-113): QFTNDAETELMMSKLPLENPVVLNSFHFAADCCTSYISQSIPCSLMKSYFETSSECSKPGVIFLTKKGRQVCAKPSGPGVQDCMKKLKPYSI

CCL16_HUMAN = target: T6, CCL16_HUMAN (Homo sapiens, UniProt O15467); conditions: read-out: Kd, CCL16_HUMAN, previously described evasins; data obtained from publications [20-22,32]; cited from earlier work
T6 sequence (O15467 24-120): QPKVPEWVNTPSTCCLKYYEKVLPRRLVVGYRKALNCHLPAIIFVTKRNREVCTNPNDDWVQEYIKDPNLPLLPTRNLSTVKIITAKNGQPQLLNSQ

CCL13_HUMAN, sequence (Q99616 17-98): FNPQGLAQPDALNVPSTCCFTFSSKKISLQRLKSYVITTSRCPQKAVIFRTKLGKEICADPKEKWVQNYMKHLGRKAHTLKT

B1: P1243_AMBAM: tick CKBP, Amblyomma americanum; AAM-02 stated identical (protein, listed as Amblyomma americanum)
chain: RNHTEDNSTEYYDYEEARCACPARHLNNTNGTVLKLLGCHYFCNGTLCTAPDGYPCYNLTAQQVRTLTTYPNTSCAVGVCMKGTCVKNGTMEQCFKTP
In the case of B1, the Kd (CCL13_HUMAN) is listed as 0.788 nM, the Kd (CCL27_HUMAN) is listed as 15.1 nM and the “Previously described chemokine binding” value (chemokines) is listed as “CCL11, CCL24, and CCL26, CCL2, and CCL7”.

B2: EVASIN4: previously described tick CKBP evasin 4, from Rhipicephalus sanguineus (protein, listed as Rhipicephalus sanguineus)
chain: EVPQMTSSSAPDLEEEDDYTAYAPLTCYFTNSTLGLLAPPNCSVLCNSTTTWFNETSPNNASCLLTVDFLTQDAILQENQPYNCSVGHCDNGTCAGPPRHAQCW
In the case of B2, the Kd (CCL23_HUMAN) is listed as 4.43 nM, the Kd (CCL8_HUMAN) is listed as 0.25 nM and the “Kd, CCL20_HUMAN, previously described evasins” value (CCL20_HUMAN) is listed as “No Binding”. For the same molecule, the Kd (CCL14_HUMAN) was 0.14 nM, the “Kd, CCL2_HUMAN, previously described evasins” value (CCL2_HUMAN) was “No Binding” and the Kd (CCL15_HUMAN) was 2.31 nM. The Kd (CCL16_HUMAN) was 0.26 nM.
